Here are results for one molecule from patent publication US7838231 (REGENTS OF THE UNIVERSITY OF MICHIGAN, dated 2010).

The target of test [1] is T1, NPHP3, human full length, yeast two-hybrid prey (human, UniProt Q7Z494 1-1330).
T1 sequence (looked up): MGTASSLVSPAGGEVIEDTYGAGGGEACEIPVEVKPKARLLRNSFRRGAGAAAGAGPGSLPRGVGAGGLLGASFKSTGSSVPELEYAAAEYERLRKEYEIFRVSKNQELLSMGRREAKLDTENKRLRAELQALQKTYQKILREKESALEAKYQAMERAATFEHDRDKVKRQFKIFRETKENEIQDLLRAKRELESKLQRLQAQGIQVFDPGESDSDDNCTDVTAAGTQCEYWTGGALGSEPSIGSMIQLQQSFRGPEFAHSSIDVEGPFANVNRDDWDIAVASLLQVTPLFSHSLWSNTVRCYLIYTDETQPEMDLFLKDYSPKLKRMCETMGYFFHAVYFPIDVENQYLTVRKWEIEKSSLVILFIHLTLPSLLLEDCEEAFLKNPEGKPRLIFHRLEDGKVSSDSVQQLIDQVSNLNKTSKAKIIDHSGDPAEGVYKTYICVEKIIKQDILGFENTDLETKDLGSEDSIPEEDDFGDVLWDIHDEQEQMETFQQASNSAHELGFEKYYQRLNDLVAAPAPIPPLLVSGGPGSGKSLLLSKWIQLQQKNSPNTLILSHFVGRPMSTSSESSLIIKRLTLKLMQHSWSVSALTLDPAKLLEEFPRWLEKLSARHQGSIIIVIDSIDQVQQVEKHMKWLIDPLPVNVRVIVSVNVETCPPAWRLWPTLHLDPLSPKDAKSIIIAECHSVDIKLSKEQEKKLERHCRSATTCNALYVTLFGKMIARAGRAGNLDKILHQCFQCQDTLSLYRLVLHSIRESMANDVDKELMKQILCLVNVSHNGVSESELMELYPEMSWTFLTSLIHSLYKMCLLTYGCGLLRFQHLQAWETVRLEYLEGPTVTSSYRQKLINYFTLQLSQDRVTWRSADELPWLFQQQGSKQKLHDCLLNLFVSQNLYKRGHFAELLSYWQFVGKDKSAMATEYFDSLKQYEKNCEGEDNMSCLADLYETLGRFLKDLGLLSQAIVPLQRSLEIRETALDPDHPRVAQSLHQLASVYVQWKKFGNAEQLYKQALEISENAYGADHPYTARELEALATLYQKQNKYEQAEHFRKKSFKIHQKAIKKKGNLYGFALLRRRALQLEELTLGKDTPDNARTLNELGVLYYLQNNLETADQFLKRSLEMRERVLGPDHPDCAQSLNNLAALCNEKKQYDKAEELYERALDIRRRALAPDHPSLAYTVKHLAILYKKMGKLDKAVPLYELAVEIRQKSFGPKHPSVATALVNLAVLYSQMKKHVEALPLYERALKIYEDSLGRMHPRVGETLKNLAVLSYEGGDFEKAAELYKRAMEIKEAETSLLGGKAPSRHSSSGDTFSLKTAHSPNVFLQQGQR
Description: direct yeast two-hybrid assay.

Test [2] concerns the target T2, NPHP4, human full length, yeast two-hybrid prey (human, UniProt O75161 1-1426).
T2 construct: also called nephroretinin; nephrocystin-4
T2 sequence: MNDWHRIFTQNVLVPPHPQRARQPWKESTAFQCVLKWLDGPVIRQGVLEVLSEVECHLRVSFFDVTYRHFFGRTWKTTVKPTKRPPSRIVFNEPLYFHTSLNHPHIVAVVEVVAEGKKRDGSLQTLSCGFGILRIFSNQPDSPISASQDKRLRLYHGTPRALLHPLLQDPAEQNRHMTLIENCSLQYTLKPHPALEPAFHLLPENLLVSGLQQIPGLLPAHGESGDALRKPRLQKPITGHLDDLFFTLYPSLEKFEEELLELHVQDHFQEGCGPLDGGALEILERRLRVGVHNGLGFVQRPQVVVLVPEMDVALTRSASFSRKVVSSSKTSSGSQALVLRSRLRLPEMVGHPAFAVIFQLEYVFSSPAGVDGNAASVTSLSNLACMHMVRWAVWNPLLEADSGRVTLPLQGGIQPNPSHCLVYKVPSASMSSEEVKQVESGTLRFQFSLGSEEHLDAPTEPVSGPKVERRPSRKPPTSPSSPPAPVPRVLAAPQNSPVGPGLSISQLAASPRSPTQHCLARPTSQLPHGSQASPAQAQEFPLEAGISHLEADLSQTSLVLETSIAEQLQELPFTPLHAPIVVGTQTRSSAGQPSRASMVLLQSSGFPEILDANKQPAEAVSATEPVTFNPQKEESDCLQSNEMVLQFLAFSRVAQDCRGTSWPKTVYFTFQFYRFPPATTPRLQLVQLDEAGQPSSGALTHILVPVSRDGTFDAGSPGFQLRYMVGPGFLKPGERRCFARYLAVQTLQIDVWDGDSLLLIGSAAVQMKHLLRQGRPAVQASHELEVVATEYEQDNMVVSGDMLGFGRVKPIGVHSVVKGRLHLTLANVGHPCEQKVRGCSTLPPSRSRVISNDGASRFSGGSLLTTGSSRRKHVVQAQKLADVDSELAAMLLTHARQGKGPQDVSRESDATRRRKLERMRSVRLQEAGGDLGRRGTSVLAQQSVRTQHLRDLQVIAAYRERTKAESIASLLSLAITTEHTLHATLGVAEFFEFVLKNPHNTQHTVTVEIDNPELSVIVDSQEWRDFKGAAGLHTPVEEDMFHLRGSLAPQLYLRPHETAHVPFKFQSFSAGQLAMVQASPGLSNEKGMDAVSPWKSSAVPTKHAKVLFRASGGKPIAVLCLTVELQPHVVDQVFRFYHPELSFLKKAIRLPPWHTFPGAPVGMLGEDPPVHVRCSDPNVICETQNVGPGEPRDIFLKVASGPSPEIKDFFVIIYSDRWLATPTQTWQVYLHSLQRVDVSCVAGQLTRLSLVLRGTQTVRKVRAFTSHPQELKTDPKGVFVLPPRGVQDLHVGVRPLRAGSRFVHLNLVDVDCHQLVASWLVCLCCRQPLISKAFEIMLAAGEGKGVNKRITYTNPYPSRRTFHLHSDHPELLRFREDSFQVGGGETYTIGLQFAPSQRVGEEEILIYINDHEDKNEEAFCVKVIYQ
Description: direct yeast two-hybrid assay.

B1: full-length human nephrocystin-5 (NPHP5), yeast two-hybrid fusion (other, not shown: small tags and cut ends)
chain: MKPTGTDPRILSIAAEVAKSPEQNVPVILLKLKEIINITPLGSSELKKIKQDIYCYDLIQYCLLVLSQDYSRIQGGWTTISQLTQILSHCCVGLEPGEDAEEFYNELLPSAAENFLVLGRQLQTCFINAAKAEEKDELLHFFQIVTDSLFWLLGGHVELIQNVLQSDHFLHLLQADNVQIGSAVMMMLQNILQINSGDLLRIGRKALYSILDEVIFKLFSTPSPVIRSTATKLLLLMAESHQEILILLRQSTCYKGLRRLLSKQETGTEFSQELRQLVGLLSPMVYQEVEEQKLHQAACLIQAYWKGFQTRKRLKKLPSAVIALQRSFRSKRSKMLLEINRQKEEEDLKLQLQLQRQRAMRLSRELQLSMLEIVHPGQVEKHYREMEEKSALNIQKHWRGYRERKNFHQQRQSLIEYKAAVTLQRAALKFLAKCRKKKKLFAPWRGLQELTDARRVELKKRVDDYVRRHLGSPMSDVVSRELHAQAQERLQHYFMGRALEERAQQHREALIAQISTNVEQLMKAPSLKEAEGKEPELFLSRSRPVAAKAKQAHLTTLKHIQAPWWKKLGEESGDEIDVPKDELSIELENLFIGGTKPP
notes: Full-length NPHP5 cDNA (598 amino acid residues) fused to a GAL4 domain; also called KIAA0036
With B1, the binding result in test [1] and in test [2] was “no binding” throughout.
